Laboratory results: paper PMC12183618

What was measured:
[1] = molecular target: MmpL10‐mEGFP‐FLMsm (Mycobacterium smegmatis); test: SEC; Superose 6 Increase 10/300 GL, 50 mM Tris-HCl pH 8, 150 mM NaCl, 3x CMC LMNG (m1 also in DDM and LDAO); apparent MW from a calibration curve
[2] = molecular target: MmpL10‐mEGFP‐FLMsm (Mycobacterium smegmatis); test: negative-stain electron microscopy; top SEC peak fraction in LMNG at 0.5 μM, uranyl acetate 1%; low-resolution map, C1 symmetry, fitted with a trimeric AlphaFold v3 model

stoichiometry N [1]: 3 | stoichiometry N [2]: 3
Substance: MmpL10‐mEGFP‐FLMsm (natural protein)
